The text below walks through data of patent US20140050727A1 (MOCHIDA PHARMACEUTICAL, published 2014).

The chains are these.
T1: human CD14 (human, UniProt P08571 20-375, limits assumed)
T1 sequence (looked up): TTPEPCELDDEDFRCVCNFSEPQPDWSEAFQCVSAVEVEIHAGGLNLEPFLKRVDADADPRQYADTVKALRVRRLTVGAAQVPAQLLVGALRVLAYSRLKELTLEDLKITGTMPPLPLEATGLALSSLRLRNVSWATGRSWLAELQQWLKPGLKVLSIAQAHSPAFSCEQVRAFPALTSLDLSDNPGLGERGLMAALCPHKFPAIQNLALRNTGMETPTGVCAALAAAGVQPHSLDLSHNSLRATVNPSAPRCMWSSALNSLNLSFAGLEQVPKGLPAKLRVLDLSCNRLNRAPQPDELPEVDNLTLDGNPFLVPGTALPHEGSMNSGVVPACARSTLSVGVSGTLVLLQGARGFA

T2: Elastase, Human Neutrophil (human, UniProt P08246 30-247, limits assumed)
T2 sequence (looked up): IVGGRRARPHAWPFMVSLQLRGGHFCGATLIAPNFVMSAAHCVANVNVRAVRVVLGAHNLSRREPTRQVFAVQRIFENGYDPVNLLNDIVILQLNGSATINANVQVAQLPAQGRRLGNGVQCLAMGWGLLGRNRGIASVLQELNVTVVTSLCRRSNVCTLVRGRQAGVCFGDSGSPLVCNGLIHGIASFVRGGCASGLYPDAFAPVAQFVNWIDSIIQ

B1: F1024S-D2(3) (antibody)
heavy: QIQLVQSGPELKKPGESVKISCKASGYTFTDYAMNWVKQAPGNGLKWMGWINTQTGKPTYADDFKQRFVFSLETSASTAYLQINNLNIEDTATYFCTRSTFYYSSYIYGWYFDFWGPGTMVTVSSASTKGPSVFPLAPCSRSTSESTAALGCLVKDYFPEPVTVSWNSGALTSGVHTFPAVLQSSGLYSLSSVVTVPSSSLGTKTYTCNVDHKPSNTKVDKRVESKYGPPGPSGPAPEFLGGPSVFLFPPKPKDTLMISRTPEVTCVVVDVSQEDPEVQFNWYVDGVEVHNAKTKPREEQFNSTYRVVSVLTVLHQDWLNGKEYKCKVSNKGLPSSIEKTISKAKGQPREPQVYTLPPSQEEMTKNQVSLTCLVKGFYPSDIAVEWESNGQPENNYKTTPPVLDSDGSFFLYSRLTVDKSRWQEGNVFSCSVMHEALHNHYTQKSLSLSLGKGSTVAACNLPIVSGPCRAFIKLWAFDAVKGKCVLFPYGGCQGNGNKFDSEKECREYCGVPGDGDEELLRFSN
light: DIVMTQSPTSISISVGERVTMNCKASQNVGSNVDWYQQKTGQSPKLLIYKASNRYTGVPDRFTGSGSGTDFTFTISNMQAVDLAVYYCMQSNTNPPWTFGGGTKLELKRTVAAPSVFIFPPSDEQLKSGTASVVCLLNNFYPREAKVQWKVDNALQSGNSQESVTEQDSKDSTYSLSSTLTLSKADYEKHKVYACEVTHQGLSSPVTKSFNRGEC
B2: F1024S-SLPI(D2) with modified linker GSGGGGSGGGGSGGGGS (antibody)
heavy: QIQLVQSGPELKKPGESVKISCKASGYTFTDYAMNWVKQAPGNGLKWMGWINTQTGKPTYADDFKQRFVFSLETSASTAYLQINNLNIEDTATYFCTRSTFYYSSYIYGWYFDFWGPGTMVTVSSASTKGPSVFPLAPCSRSTSESTAALGCLVKDYFPEPVTVSWNSGALTSGVHTFPAVLQSSGLYSLSSVVTVPSSSLGTKTYTCNVDHKPSNTKVDKRVESKYGPPGPSGPAPEFLGGPSVFLFPPKPKDTLMISRTPEVTCVVVDVSQEDPEVQFNWYVDGVEVHNAKTKPREEQFNSTYRVVSVLTVLHQDWLNGKEYKCKVSNKGLPSSIEKTISKAKGQPREPQVYTLPPSQEEMTKNQVSLTCLVKGFYPSDIAVEWESNGQPENNYKTTPPVLDSDGSFFLYSRLTVDKSRWQEGNVFSCSVMHEALHNHYTQKSLSLSLGKGSGGGGSGGGGSGGGGSRRKPGKCPVTYGQCLMLNPPNFCEMDGQCKRDLKCCMGMCGKSCVSPVKA
light: DIVMTQSPTSISISVGERVTMNCKASQNVGSNVDWYQQKTGQSPKLLIYKASNRYTGVPDRFTGSGSGTDFTFTISNMQAVDLAVYYCMQSNTNPPWTFGGGTKLELKRTVAAPSVFIFPPSDEQLKSGTASVVCLLNNFYPREAKVQWKVDNALQSGNSQESVTEQDSKDSTYSLSSTLTLSKADYEKHKVYACEVTHQGLSSPVTKSFNRGEC
B3: F1024S-SLPI(D2) (antibody)
heavy: QIQLVQSGPELKKPGESVKISCKASGYTFTDYAMNWVKQAPGNGLKWMGWINTQTGKPTYADDFKQRFVFSLETSASTAYLQINNLNIEDTATYFCTRSTFYYSSYIYGWYFDFWGPGTMVTVSSASTKGPSVFPLAPCSRSTSESTAALGCLVKDYFPEPVTVSWNSGALTSGVHTFPAVLQSSGLYSLSSVVTVPSSSLGTKTYTCNVDHKPSNTKVDKRVESKYGPPGPSGPAPEFLGGPSVFLFPPKPKDTLMISRTPEVTCVVVDVSQEDPEVQFNWYVDGVEVHNAKTKPREEQFNSTYRVVSVLTVLHQDWLNGKEYKCKVSNKGLPSSIEKTISKAKGQPREPQVYTLPPSQEEMTKNQVSLTCLVKGFYPSDIAVEWESNGQPENNYKTTPPVLDSDGSFFLYSRLTVDKSRWQEGNVFSCSVMHEALHNHYTQKSLSLSLGKGSRRKPGKCPVTYGQCLMLNPPNFCEMDGQCKRDLKCCMGMCGKSCVSPVKA
light: DIVMTQSPTSISISVGERVTMNCKASQNVGSNVDWYQQKTGQSPKLLIYKASNRYTGVPDRFTGSGSGTDFTFTISNMQAVDLAVYYCMQSNTNPPWTFGGGTKLELKRTVAAPSVFIFPPSDEQLKSGTASVVCLLNNFYPREAKVQWKVDNALQSGNSQESVTEQDSKDSTYSLSSTLTLSKADYEKHKVYACEVTHQGLSSPVTKSFNRGEC
B4: F1024S-SLPI(D1D2) (antibody)
heavy: QIQLVQSGPELKKPGESVKISCKASGYTFTDYAMNWVKQAPGNGLKWMGWINTQTGKPTYADDFKQRFVFSLETSASTAYLQINNLNIEDTATYFCTRSTFYYSSYIYGWYFDFWGPGTMVTVSSASTKGPSVFPLAPCSRSTSESTAALGCLVKDYFPEPVTVSWNSGALTSGVHTFPAVLQSSGLYSLSSVVTVPSSSLGTKTYTCNVDHKPSNTKVDKRVESKYGPPGPSGPAPEFLGGPSVFLFPPKPKDTLMISRTPEVTCVVVDVSQEDPEVQFNWYVDGVEVHNAKTKPREEQFNSTYRVVSVLTVLHQDWLNGKEYKCKVSNKGLPSSIEKTISKAKGQPREPQVYTLPPSQEEMTKNQVSLTCLVKGFYPSDIAVEWESNGQPENNYKTTPPVLDSDGSFFLYSRLTVDKSRWQEGNVFSCSVMHEALHNHYTQKSLSLSLGKGSGKSFKAGVCPPKKSAQCLRYKKPECQSDWQCPGKKRCCPDTCGIKCLDPVDTPNPTRRKPGKCPVTYGQCLMLNPPNFCEMDGQCKRDLKCCMGMCGKSCVSPVKA
light: DIVMTQSPTSISISVGERVTMNCKASQNVGSNVDWYQQKTGQSPKLLIYKASNRYTGVPDRFTGSGSGTDFTFTISNMQAVDLAVYYCMQSNTNPPWTFGGGTKLELKRTVAAPSVFIFPPSDEQLKSGTASVVCLLNNFYPREAKVQWKVDNALQSGNSQESVTEQDSKDSTYSLSSTLTLSKADYEKHKVYACEVTHQGLSSPVTKSFNRGEC
B5: modified F1024S-D2(R11S/R15T/Q19K/Y46D) (antibody)
heavy: QIQLVQSGPELKKPGESVKISCKASGYTFTDYAMNWVKQAPGNGLKWMGWINTQTGKPTYADDFKQRFVFSLETSASTAYLQINNLNIEDTATYFCTRSTFYYSSYIYGWYFDFWGPGTMVTVSSASTKGPSVFPLAPCSRSTSESTAALGCLVKDYFPEPVTVSWNSGALTSGVHTFPAVLQSSGLYSLSSVVTVPSSSLGTKTYTCNVDHKPSNTKVDKRVESKYGPPGPSGPAPEFLGGPSVFLFPPKPKDTLMISRTPEVTCVVVDVSQEDPEVQFNWYVDGVEVHNAKTKPREEQFNSTYRVVSVLTVLHQDWLNGKEYKCKVSNKGLPSSIEKTISKAKGQPREPQVYTLPPSQEEMTKNQVSLTCLVKGFYPSDIAVEWESNGQPENNYKTTPPVLDSDGSFFLYSRLTVDKSRWQEGNVFSCSVMHEALHNHYTQKSLSLSLGKGSTVAACNLPIVSGPCTAFIKLWAFDAVKGKCVLFPYGGCQGNGNKFDSEKECREYCGVPGDGDEELLRFSN
light: DIVMTQSPTSISISVGERVTMNCKASQNVGSNVDWYQQKTGQSPKLLIYKASNRYTGVPDRFTGSGSGTDFTFTISNMQAVDLAVYYCMQSNTNPPWTFGGGTKLELKRTVAAPSVFIFPPSDEQLKSGTASVVCLLNNFYPREAKVQWKVDNALQSGNSQESVTEQDSKDSTYSLSSTLTLSKADYEKHKVYACEVTHQGLSSPVTKSFNRGEC

One test addresses T1, human CD14. The experiment in a line: cell-based or functional assay.
For the molecule B1, the “IC50 for inhibition of LPS-induced E-Selectin expression in HUVEC” value stood at 0.43 µg/mL, the “IC50 for inhibition of LPS-induced IL-6 production in HUVEC” value stood at 0.38 µg/mL, the “IC50 for inhibition of LPS-induced TNF-α production in human peripheral blood mononuclear cells” value was 0.58 µg/mL and the “IC50 for inhibition of LPS-induced procoagulant activity (PCA) in human peripheral blood mononuclear cells” value worked out at 20.9 µg/mL.

A further test addresses T2, Elastase, Human Neutrophil. The experiment in a line: cell-based or functional assay.
With B2, the “50% inhibitory concentration (elastase inhibitory activity)” value (from here on “50% inhibitory concentration”) was found to be 11.6 µg/mL.

Consider B3, for which the “50% inhibitory concentration” value was 26.9 µg/mL.

Turning to B1, the “50% inhibitory concentration” value was 8.9 µg/mL.

As for B4, the “50% inhibitory concentration” value turned out to be 22.5 µg/mL.

In the case of B5, the “50% inhibitory concentration” value amounted to 4.43 µg/mL.

For a further test, the target named is Human Factor Xa (human, UniProt P00742 41-488, limits assumed). The experiment in a line: cell-based or functional assay.
Sequence of Human Factor Xa (P00742 41-488 limits assumed): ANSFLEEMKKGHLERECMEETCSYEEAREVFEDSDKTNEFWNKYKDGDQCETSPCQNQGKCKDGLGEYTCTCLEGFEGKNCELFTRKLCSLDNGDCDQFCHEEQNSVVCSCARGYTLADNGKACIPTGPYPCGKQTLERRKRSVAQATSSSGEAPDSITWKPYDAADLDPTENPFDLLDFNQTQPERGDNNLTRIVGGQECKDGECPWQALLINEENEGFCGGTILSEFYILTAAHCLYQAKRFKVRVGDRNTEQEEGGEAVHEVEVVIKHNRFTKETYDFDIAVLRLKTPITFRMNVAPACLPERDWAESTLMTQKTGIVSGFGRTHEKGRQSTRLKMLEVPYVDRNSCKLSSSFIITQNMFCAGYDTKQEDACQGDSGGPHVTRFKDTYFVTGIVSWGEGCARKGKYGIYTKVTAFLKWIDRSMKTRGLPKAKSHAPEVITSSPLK
In the case of AVLPQEEEGSGMAACNLPIVRGPCRAFIKLWAFDAVKGKCVLFPYGG (other) [polypeptide Q19K/Y46D], the FXa-inhibiting activity is ~20 times that of polypeptide AN68.

For the molecule AVLPQEEEGSGMAACNLPIVQGPCRAFIKLWAFDAVKGKCVLFPYGG (other) [polypeptide R11Q/Q19K/Y46D], the FXa-inhibiting activity is ~20 times that of polypeptide AN68.

For the molecule AVLPQEEEGSGMAACNLPIVLGPCRAFIKLWAFDAVKGKCVLFPYGG (other) [polypeptide R11L/Q19K/Y46D], the FXa-inhibiting activity was ~16 times that of polypeptide AN68.

Consider AVLPQEEEGSGMAACNLPIVDGPCRAFIKLWAFDAVKGKCVLFPYGG (other) [polypeptide R11D/Q19K/Y46D], for which the FXa-inhibiting activity is ~5 times that of polypeptide AN68.

Consider AVLPQEEEGSGMAACNLPIVRGPCRAFIRLWAFDAVKGKCVLFPYGG (other) [polypeptide Q19R/Y46D], for which the FXa-inhibiting activity is ~18 times that of polypeptide AN68.

Regarding AVLPQEEEGSGMAACNLPIVEGPCRAFIKLWAFDAVKGKCVLFPYGG (other) [polypeptide R11E/Q19K/Y46E], the FXa-inhibiting activity is ~13 times that of polypeptide AN68.

Regarding AACNLPIVRGPCRAFIRLWAFDAVKGKCVLFPYGGCQGNGNKFYSEK (other) [polypeptide Q19R], the FXa-inhibiting activity was ~6 times that of polypeptide AN68.

For the molecule AACNLPIVEGPCRAFIQLWAFDAVKGKCVLFPYGGCQGNGNKFESEK (other) [polypeptide R11E/Y46E], the FXa-inhibiting activity is ~3 times that of polypeptide AN68.

AACNLPIVRGPCRAFIKLWAFDAVKGKCVLFPYGGCQGNGNKFESEK (other) [polypeptide Q19K/Y46E]: the FXa-inhibiting activity is ~10 times that of polypeptide AN68.

AACNLPIVRGPCRAFIRLWAFDAVKGKCVLFPYGGCQGNGNKFESEK (other) [polypeptide Q19R/Y46E]: the FXa-inhibiting activity was ~10 times that of polypeptide AN68.
